Assay results: publication PMC3059903 (EMBO Reports, 2011)

Biological target: laminin β1 LN–LEa1–4 fragment (mouse, UniProt P02469 22-509)
Assay: SPR

Chain of laminin β1 LN–LEa1–4 fragment (P02469 22-509): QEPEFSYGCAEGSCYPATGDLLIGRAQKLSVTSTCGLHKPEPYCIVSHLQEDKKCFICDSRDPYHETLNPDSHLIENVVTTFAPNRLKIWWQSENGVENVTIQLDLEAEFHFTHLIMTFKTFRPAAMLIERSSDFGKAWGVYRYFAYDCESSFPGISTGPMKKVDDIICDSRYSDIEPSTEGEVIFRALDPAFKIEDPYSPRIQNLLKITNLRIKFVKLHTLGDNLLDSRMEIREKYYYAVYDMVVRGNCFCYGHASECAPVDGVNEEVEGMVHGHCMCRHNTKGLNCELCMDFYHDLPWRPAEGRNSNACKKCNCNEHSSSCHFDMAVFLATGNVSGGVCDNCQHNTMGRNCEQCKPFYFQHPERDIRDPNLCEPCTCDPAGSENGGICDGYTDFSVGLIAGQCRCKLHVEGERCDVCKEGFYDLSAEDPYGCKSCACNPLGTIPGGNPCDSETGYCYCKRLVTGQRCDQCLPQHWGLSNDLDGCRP

B1: laminin γ1 LN–LEa1–4 fragment (domain or fragment, mouse, UniProt P02468 34-492, looked up)
chain: AMDECADEGGRPQRCMPEFVNAAFNVTVVATNTCGTPPEEYCVQTGVTGVTKSCHLCDAGQQHLQHGAAFLTDYNNQADTTWWQSQTMLAGVQYPNSINLTLHLGKAFDITYVRLKFHTSRPESFAIYKRTREDGPWIPYQYYSGSCENTYSKANRGFIRTGGDEQQALCTDEFSDISPLTGGNVAFSTLEGRPSAYNFDNSPVLQEWVTATDIRVTLNRLNTFGDEVFNEPKVLKSYYYAISDFAVGGRCKCNGHASECVKNEFDKLMCNCKHNTYGVDCEKCLPFFNDRPWRRATAESASESLPCDCNGRSQECYFDPELYRSTGHGGHCTNCRDNTDGAKCERCRENFFRLGNTEACSPCHCSPVGSLSTQCDSYGRCSCKPGVMGDKCDRCQPGFHSLTEAGCRPCSCDLRGSTDECNVETGRCVCKDNVEGFNCERCKPGFFNLESSNPKGCTP
- Kd: ≥ 5 µM
